Data as given in paper PMC6938703 (Science Advances, 2020).

How the values were obtained:
crystal structure = biological target: the molecule itself; experiment: crystal structure
SEC-MALS = biological target: the molecule itself; experiment: SEC-MALS

Protein | binding result (crystal structure) | binding result (SEC-MALS)
Selenomethionine-substituted dARC1 CA (residues S39 to N205) (domain or fragment, D. melanogaster, selenomethionine in place of methionine) SRGKGNFSACTHSFGGTRDHDVVEEFIGNIETYKDVEGISDENALKGISLLFYGMASTWWQGVRKEATTWKEAIALIREHFSPTKPAYQIYMEFFQNKQDDHDPIDTFVIQKRALLAQLPSGRHDEETELDLLFGLLNIKYRKHISRHSVHTFKDLLEQGRIIEHNNPLE | binds | 
dARC1 CA F133A (domain or fragment, D. melanogaster) SRGKGNFSACTHSFGGTRDHDVVEEFIGNIETYKDVEGISDENALKGISLLFYGMASTWWQGVRKEATTWKEAIALIREHFSPTKPAYQIYMEFAQNKQDDHDPIDTFVIQKRALLAQLPSGRHDEETELDLLFGLLNIKYRKHISRHSVHTFKDLLEQGRIIEHNNPLE |  | binds
